The test has as its target VACV B18. In words: SPR. A general note: In SPR one partner is held on a chip, and binding of the other changes the refractive index at the surface.

Drawing on PMC6303335, this text covers koff for one substance.

Usually koff stands for the rate constant with which the complex falls apart. The low end stands for slow dissociation, the high end for fast dissociation.

Regarding human IFNα-2b, the koff amounted to 0.000225 s⁻¹.
